Measurements taken from article PMC11606499, “Molecular principles of the assembly and construction of a carboxysome shell” (Science Advances, 2024).
One block for each binder: values may come before it.

B1: CsoS1A (in recombinant α-carboxysome midi-shells) (natural protein, Halothiobacillus neapolitanus c2)
chain: MADVTGIALGMIETRGLVPAIEAADAMTKAAEVRLVGRQFVGGGYVTVLVRGETGAVNAAVRAGADACERVGDGLVAAHIIARVHSEVENILPKAPQA
notes: CsoS1A, hexameric shell protein of the α-carboxysome, Halothiobacillus neapolitanus c2; the gene as it stands in the midi-shell operon derived from the synthetic cso-2 operon; CsoS1A, CsoS1B and CsoS1C could not be told apart in the symmetrised maps; also called CsoS1 hexamer; BMC-H; source: E. coli BW25113, midi-shell operon (L-arabinose induced), in purified shells
B5: CsoS1C (in the CsoS1C-based T = 9 mini-shell) (natural protein, Halothiobacillus neapolitanus c2)
chain: MAAVTGIALGMIETRGLVPAIEAADAMTKAAEVRLVGRQFVGGGYVTVLVRGETGAVNAAVRAGADACERVGDGLVAAHIIARVHSEVENILPKAPEA
notes: CsoS1C, shell hexamer paralog, Halothiobacillus neapolitanus c2; differs from CsoS1A at the 3rd and 97th amino acids; the gene as it stands in the mini-shell operon; source: E. coli BW25113, CsoS1C-based mini-shell operon, in purified shells
B9: His-tagged CsoS1B (expressed alone or coexpressed with CsoS1A or CsoS1C) (natural protein, Halothiobacillus neapolitanus c2, UniProt P45690 1-110, looked up)
chain: MATTHGIALGMIETRGLVPAIEAADAMTKAAEVRLVGRSFVGGGYVTVMVRGETGAVNAAVRAGADACERVGDGLVAAHIIARVHSEVEIILPETPEDSDSAWCIANLNS
notes: CsoS1B, Halothiobacillus neapolitanus c2; gene fragment amplified from the cso-2 operon; Six copies when expressed alone; about 1.5 copies per hexamer in the coexpressed CsoS1A/B sample; source: E. coli BL21 (DE3), pET-22b, purified (Ni-NTA, Superdex 200); not shown: His tag, C-terminal, kept

How the values were obtained:
[1] = target: T1, C-terminal domain of CsoS2 (CsoS2-C) (Halothiobacillus neapolitanus c2, UniProt O85041 604-869); test: cryo-EM structure; purified midi-shells assembled in E. coli from the coexpressed proteins; T = 9, T = 9 Q = 12, T = 13, T = 16 and T = 19 shells at 2.3, 2.99, 2.93, 2.75 and 3.04 Å, symmetry imposed; conditions: both partners purified
T1 construct: CsoS2, scaffolding/linker protein of the α-carboxysome, Halothiobacillus neapolitanus c2; source: E. coli BW25113, midi-shell operon or CsoS1C-based mini-shell operon, in purified shells
T1 sequence (looked up): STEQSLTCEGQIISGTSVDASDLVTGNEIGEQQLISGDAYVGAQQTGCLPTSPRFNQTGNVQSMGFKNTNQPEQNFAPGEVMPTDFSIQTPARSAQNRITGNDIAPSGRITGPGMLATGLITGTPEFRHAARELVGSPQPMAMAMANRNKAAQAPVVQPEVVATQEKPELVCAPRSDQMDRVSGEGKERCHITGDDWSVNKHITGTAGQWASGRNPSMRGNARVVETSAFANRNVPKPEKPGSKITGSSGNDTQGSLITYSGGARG

[2] = target: the molecule itself; test: as above
[3] = target: the molecule itself; test: crystal structure; crystals of the purified coexpressed CsoS1A and His-tagged CsoS1B sample, hanging drop, 18°C; 2.1 Å
[4] = target: B9; test: SDS-PAGE of washed crystals; crystals of the coexpressed CsoS1A and His-tagged CsoS1B sample, washed with buffer for various times before SDS-PAGE; conditions: both partners purified
[5] = target: the molecule itself; test: SEC + other: dynamic light scattering; Superdex 200 in 50 mM tris-HCl pH 8.0, 100 mM NaCl; DLS on DynaPro NanoStar, in triplicate; proteins expressed alone or coexpressed and purified by Ni-NTA through the His tag of one of them
[6] = target: T1, C-terminal domain of CsoS2 (CsoS2-C); test: cryo-EM structure; purified CsoS1C-based T = 9 mini-shell assembled in E. coli from the coexpressed proteins; 1.8 Å; conditions: both partners purified
[7] = target: the molecule itself; test: as above
[8] = target: B9; test: SEC + other: dynamic light scattering; Superdex 200 in 50 mM tris-HCl pH 8.0, 100 mM NaCl; DLS on DynaPro NanoStar, in triplicate; proteins expressed alone or coexpressed and purified by Ni-NTA through the His tag of one of them; conditions: both partners purified
[9] = target: B5; test: cryo-EM structure; purified CsoS1C-based T = 9 mini-shell assembled in E. coli from the coexpressed proteins; 1.8 Å; conditions: both partners purified
[10] = target: B1; test: cryo-EM structure; purified midi-shells assembled in E. coli from the coexpressed proteins; T = 9, T = 9 Q = 12, T = 13, T = 16 and T = 19 shells at 2.3, 2.99, 2.93, 2.75 and 3.04 Å, symmetry imposed; conditions: both partners purified
[11] = target: the molecule itself; test: SEC; Superdex 200 in 50 mM tris-HCl pH 8.0, 100 mM NaCl; individually expressed CsoS4 proteins
[12] = target: T2, CsoS4A (untagged, coexpressed with His-tagged CsoS4B) (Halothiobacillus neapolitanus c2, UniProt O85043 1-83); test: SEC + other: dynamic light scattering; Superdex 200 in 50 mM tris-HCl pH 8.0, 100 mM NaCl; DLS on DynaPro NanoStar, in triplicate; proteins expressed alone or coexpressed and purified by Ni-NTA through the His tag of one of them; conditions: both partners purified
T2 construct: CsoS4A, Halothiobacillus neapolitanus c2; gene amplified from the cso-2 operon, the His tag stands on CsoS4B only; source: E. coli BL21 (DE3), pET-22b csoS4A-csoS4B, co-purified with His-tagged CsoS4B (Ni-NTA, Superdex 200)
T2 sequence: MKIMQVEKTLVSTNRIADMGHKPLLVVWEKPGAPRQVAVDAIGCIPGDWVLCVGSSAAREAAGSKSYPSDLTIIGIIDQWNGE

Binder: B1
binding result [1]: binds
stoichiometry N [2]: 6

stoichiometry N [4]: ~3 CsoS1A per CsoS1B
B2: CsoS1A (untagged, coexpressed with His-tagged CsoS1B) (natural protein, Halothiobacillus neapolitanus c2)
chain: MADVTGIALGMIETRGLVPAIEAADAMTKAAEVRLVGRQFVGGGYVTVLVRGETGAVNAAVRAGADACERVGDGLVAAHIIARVHSEVENILPKAPQA
notes: CsoS1A, Halothiobacillus neapolitanus c2; gene amplified from the cso-2 operon, the His tag stands on CsoS1B only; also called S1A-S1B (coexpressed sample); source: E. coli BL21 (DE3), pET-22b csoS1A-csoS1B, co-purified with His-tagged CsoS1B (Ni-NTA, Superdex 200)
stoichiometry N [3]: 6

B3: His-tagged CsoS1A (individually expressed) (natural protein, Halothiobacillus neapolitanus c2)
chain: MADVTGIALGMIETRGLVPAIEAADAMTKAAEVRLVGRQFVGGGYVTVLVRGETGAVNAAVRAGADACERVGDGLVAAHIIARVHSEVENILPKAPQA
notes: CsoS1A, Halothiobacillus neapolitanus c2; gene fragment amplified from the cso-2 operon; source: E. coli BL21 (DE3), pET-22b, purified (Ni-NTA, Superdex 200); not shown: His tag, C-terminal, kept
stoichiometry N [5]: 6

B4: CsoS1C (individually expressed, C-terminal His tag) (natural protein, Halothiobacillus neapolitanus c2)
chain: MAAVTGIALGMIETRGLVPAIEAADAMTKAAEVRLVGRQFVGGGYVTVLVRGETGAVNAAVRAGADACERVGDGLVAAHIIARVHSEVENILPKAPEA
notes: CsoS1C, Halothiobacillus neapolitanus c2; gene fragment amplified from the cso-2 operon; source: E. coli BL21 (DE3), pET-22b, purified (Ni-NTA, Superdex 200)
stoichiometry N [5]: 6

Binder: B5
binding result [6]: binds
stoichiometry N [7]: 6

binding result [8]: binds
B6: CsoS1C (untagged, coexpressed with His-tagged CsoS1B) (natural protein, Halothiobacillus neapolitanus c2)
chain: MAAVTGIALGMIETRGLVPAIEAADAMTKAAEVRLVGRQFVGGGYVTVLVRGETGAVNAAVRAGADACERVGDGLVAAHIIARVHSEVENILPKAPEA
notes: CsoS1C, Halothiobacillus neapolitanus c2; gene amplified from the cso-2 operon, the His tag stands on CsoS1B only; source: E. coli BL21 (DE3), pET-22b csoS1C-csoS1B, co-purified with His-tagged CsoS1B (Ni-NTA, Superdex 200)

binding result [9]: binds
binding result [10]: binds
B7: CsoS4A (in recombinant α-carboxysome shells) (natural protein, Halothiobacillus neapolitanus c2)
chain: MKIMQVEKTLVSTNRIADMGHKPLLVVWEKPGAPRQVAVDAIGCIPGDWVLCVGSSAAREAAGSKSYPSDLTIIGIIDQWNGE
notes: CsoS4A, pentameric vertex protein of the α-carboxysome shell, Halothiobacillus neapolitanus c2; the gene as it stands in the shell operon; All pentamers of the shell models were assigned to CsoS4A; also called CsoS4 pentamer; BMC-P; source: E. coli BW25113, midi-shell operon or CsoS1C-based mini-shell operon, in purified shells
stoichiometry N [2]: 5

B8: CsoS4A (individually expressed, C-terminal His tag) (natural protein, Halothiobacillus neapolitanus c2)
chain: MKIMQVEKTLVSTNRIADMGHKPLLVVWEKPGAPRQVAVDAIGCIPGDWVLCVGSSAAREAAGSKSYPSDLTIIGIIDQWNGE
notes: CsoS4A, Halothiobacillus neapolitanus c2; gene fragment amplified from the cso-2 operon; In solution pentamers and other aggregation forms; source: E. coli BL21 (DE3), pET-22b, purified (Ni-NTA, Superdex 200)
stoichiometry N [11]: 5

Binder: B9
stoichiometry N [5]: 6

binding result [12]: binds
B10: CsoS4B (C-terminal His tag; expressed alone or coexpressed with CsoS4A) (natural protein, Halothiobacillus neapolitanus c2, UniProt O85044 1-81, looked up)
chain: MEVMRVRSDLIATRRIPGLKNISLRVMEDATGKVSVACDPIGVPEGCWVFTISGSAARFGVGDFEILTDLTIGGIIDHWVT
notes: CsoS4B, Halothiobacillus neapolitanus c2; gene fragment amplified from the cso-2 operon; Five copies when expressed alone; source: E. coli BL21 (DE3), pET-22b, purified (Ni-NTA, Superdex 200)
stoichiometry N [11]: 5
